This is an account of results in the supplement of paper PMC9112550, “Optimization of the antimicrobial peptide Bac7 by deep mutational scanning” (BMC Biology, 2022).
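Also: peptides expressed intracellularly from a pBAD plasmid library in pooled LB shake-flask culture, induced with 0.3% L-arabinose, DNA abundance read by NGS, three biological replicates, DESeq2 with apeglm shrinkage.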

The test system of this data set is Escherichia coli TOP10. As to the kind of experiment: shrunken log2 fold change of peptide-encoding DNA abundance (4.5 h post-induction vs induction); higher = less antimicrobial activity (less host growth inhibition). As to conditions: time post-induction: 4.5 h; library: site-saturation at positions 5, 18, 19, 20.
As for RRIRKRPPRLPRPRPRPLDYPRP, the “shrunken log2 fold change” value was -0.202.
With RRIRKRPPRLPRPRPRPAYEPRP, the “shrunken log2 fold change” value was found to be 0.0198.
On to RRIRCRPPRLPRPRPRPFPPPRP, for which the “shrunken log2 fold change” value was found to be 0.0149.
The value for RRIRTRPPRLPRPRPRPVCWPRP was 0.304.
Consider RRIRYRPPRLPRPRPRPNYNPRP, for which the “shrunken log2 fold change” value was -1.43.
The result for RRIRTRPPRLPRPRPRPEDNPRP reads 0.168; that for RRIRMRPPRLPRPRPRPKQHPRP, 0.675.
In the case of RRIRRRPPRLPRPRPRPEHYPRP, the “shrunken log2 fold change” value was determined as 0.0555.
The value for RRIRHRPPRLPRPRPRPKHSPRP was -0.347; that for RRIRLRPPRLPRPRPRPIHQPRP was 0.0518.
Regarding RRIRTRPPRLPRPRPRPYAWPRP, the “shrunken log2 fold change” value is -0.0721.
The value for RRIRERPPRLPRPRPRPSFCPRP was -0.593.
The result for RRIRLRPPRLPRPRPRPGPSPRP reads 0.25.
The result for RRIRFRPPRLPRPRPRPPHGPRP reads 0.364; that for RRIRCRPPRLPRPRPRPIMSPRP, -0.128.
As for RRIRKRPPRLPRPRPRPIQSPRP, the “shrunken log2 fold change” value is -0.0332.
The result for RRIRTRPPRLPRPRPRPPPKPRP reads 0.82; that for RRIRRRPPRLPRPRPRPVTEPRP, 0.285; that for RRIRLRPPRLPRPRPRPCMGPRP, -0.085.
The result for RRIRPRPPRLPRPRPRPYNIPRP reads -1.66; that for RRIRARPPRLPRPRPRPDDYPRP, -0.0457; that for RRIRNRPPRLPRPRPRPCEFPRP, -0.398.
The value for RRIRHRPPRLPRPRPRPEDNPRP was -0.0032; that for RRIRQRPPRLPRPRPRPCKHPRP was -1.29; that for RRIRGRPPRLPRPRPRPLNAPRP was 0.908.
For RRIRMRPPRLPRPRPRPSTYPRP, the “shrunken log2 fold change” value was -0.347.
The result for RRIRTRPPRLPRPRPRPYICPRP reads -0.143; that for RRIRCRPPRLPRPRPRPEKYPRP, -0.209.
For RRIRNRPPRLPRPRPRPLSMPRP, the “shrunken log2 fold change” value was -0.012.
The result for RRIRFRPPRLPRPRPRPYFGPRP reads -1.15; that for RRIRDRPPRLPRPRPRPILRPRP, -0.0119; that for RRIRWRPPRLPRPRPRPYDRPRP, 0.0155.
The value for RRIRWRPPRLPRPRPRPQPMPRP was 0.145; that for RRIRYRPPRLPRPRPRPKYIPRP was -0.665; that for RRIRDRPPRLPRPRPRPSFTPRP was -0.404.
The value for RRIRVRPPRLPRPRPRPYWAPRP was -0.0239; that for RRIRGRPPRLPRPRPRPLMWPRP was 0.4; that for RRIRKRPPRLPRPRPRPQSIPRP was 0.147.
As to RRIRSRPPRLPRPRPRPMIHPRP, the “shrunken log2 fold change” value is -0.0892.
RRIRARPPRLPRPRPRPQNIPRP: the “shrunken log2 fold change” value is -0.56.
The value for RRIRERPPRLPRPRPRPWMHPRP was -0.126; that for RRIRGRPPRLPRPRPRPASMPRP was 0.548.
The value for RRIRWRPPRLPRPRPRPSPKPRP was 0.403.
The value for RRIRWRPPRLPRPRPRPYVRPRP was -0.0178; that for RRIRPRPPRLPRPRPRPQHLPRP was -0.172; that for RRIRIRPPRLPRPRPRPINAPRP was -0.431.
As for RRIRVRPPRLPRPRPRPHDYPRP, the “shrunken log2 fold change” value was -0.264.
The value for RRIRNRPPRLPRPRPRPHDMPRP was -0.137.
The value for RRIRARPPRLPRPRPRPEENPRP was 1.26.
The result for RRIRNRPPRLPRPRPRPDMIPRP reads -0.667; that for RRIRARPPRLPRPRPRPRPNPRP, 0.493; that for RRIRDRPPRLPRPRPRPCWEPRP, 0.28.
As to RRIRFRPPRLPRPRPRPSMNPRP, the “shrunken log2 fold change” value was 0.274.
The result for RRIRHRPPRLPRPRPRPAPHPRP reads 0.223; that for RRIRPRPPRLPRPRPRPFYAPRP, 0.02.
On to RRIRSRPPRLPRPRPRPTLYPRP, for which the “shrunken log2 fold change” value was determined as 0.0585.
As for RRIRIRPPRLPRPRPRPYAQPRP, the “shrunken log2 fold change” value was -0.121.
The result for RRIRVRPPRLPRPRPRPDMFPRP reads 0.0441; that for RRIRVRPPRLPRPRPRPHNRPRP, -0.241.
Consider RRIRIRPPRLPRPRPRPCGPPRP, for which the “shrunken log2 fold change” value is -0.138.
As for RRIRSRPPRLPRPRPRPKTQPRP, the “shrunken log2 fold change” value is -0.0511.
With RRIRLRPPRLPRPRPRPMVSPRP, the “shrunken log2 fold change” value was -0.0017.
The value for RRIRARPPRLPRPRPRPSRTPRP was 0.471; that for RRIRHRPPRLPRPRPRPLGWPRP was 0.708; that for RRIRERPPRLPRPRPRPHCCPRP was -0.0271.
The value for RRIRKRPPRLPRPRPRPAPNPRP was 0.631.
The result for RRIRDRPPRLPRPRPRPGCKPRP reads 0.0398.
On to RRIRERPPRLPRPRPRPLDPPRP, for which the “shrunken log2 fold change” value was -0.102.
The value for RRIRNRPPRLPRPRPRPANLPRP was -0.342; that for RRIRMRPPRLPRPRPRPSHFPRP was -0.274; that for RRIRTRPPRLPRPRPRPTAAPRP was 0.211.
The value for RRIRCRPPRLPRPRPRPWQMPRP was -0.0748; that for RRIRHRPPRLPRPRPRPRKPPRP was 0.321; that for RRIRYRPPRLPRPRPRPYNVPRP was -0.0198.
The value for RRIRQRPPRLPRPRPRPDYAPRP was -0.00674; that for RRIRYRPPRLPRPRPRPLTWPRP was -0.333.
As for RRIRNRPPRLPRPRPRPQIKPRP, the “shrunken log2 fold change” value is -0.479.
The result for RRIRVRPPRLPRPRPRPNQEPRP reads -0.176.
Regarding RRIRHRPPRLPRPRPRPIDWPRP, the “shrunken log2 fold change” value came to 0.0599.
The result for RRIRYRPPRLPRPRPRPKWPPRP reads -0.0557; that for RRIRGRPPRLPRPRPRPHALPRP, 0.0818; that for RRIRPRPPRLPRPRPRPIELPRP, -0.0296.
The result for RRIRQRPPRLPRPRPRPPGVPRP reads 0.462; that for RRIRIRPPRLPRPRPRPPDVPRP, -0.109.
The value for RRIRERPPRLPRPRPRPTSRPRP was 0.249; that for RRIRHRPPRLPRPRPRPYTIPRP was -0.0416; that for RRIRARPPRLPRPRPRPSYSPRP was -0.349.
In the case of RRIRHRPPRLPRPRPRPDQFPRP, the “shrunken log2 fold change” value is -0.441.
Turning to RRIRQRPPRLPRPRPRPWNLPRP, the “shrunken log2 fold change” value is -0.0507.
The result for RRIRFRPPRLPRPRPRPTCDPRP reads -0.0372.
The value for RRIRFRPPRLPRPRPRPHRAPRP was -0.0573.
